Results taken from patent publication US20110135573A1, “METALLOPROTEINASE 9 AND METALLOPROTEINASE 2 BINDING PROTEINS” (DYAX CORP., priority 2009, published 2011).
One block for each binder: values may come before it.

Assays:
[1] = molecular target: mouse MMP-2 (R&D Systems #924-MP-010) (mouse) (UniProt P33434); assay: Ki,app, enzyme inhibition assay (fluorogenic peptide substrate), medium-scale sFab
[2] = molecular target: mouse MMP-2 (R&D Systems #924-MP-010) (mouse) (UniProt P33434); assay: Ki,app, enzyme inhibition assay (fluorogenic peptide substrate), small-scale sFab
[3] = molecular target: mouse MMP-2 (R&D Systems #924-MP-010) (mouse) (UniProt P33434); assay: Ki,app, enzyme inhibition assay (fluorogenic peptide substrate), IgG

B1: M0301-D12 (Fab, V domains shown)
VH: EVQLLESGGGLVQPGGSLRLSCAASGFTFSMYDMWWVRQAPGKGLEWVSVIYSSGGYTSYADSVKGRFTISRDNSKNTLYLQMNSLRAEDTAVYYCAKDRAYGDYVGWNGFDYWGQGTLVTVSS
VL: DIQMTQSPATLSLSPGERATLSCRASQSISSFLAWYQQKPGQAPRLLIYDASYRATGIPARFSGSGSGTDFTLTISSLEPEDYAVYYCQQRGNWPITFGQGTRLEIK
Ki [1]: 25 nM
Ki [2]: 25 nM

B2: 539A-M0237-D02 hIgG1 (antibody, V domains shown)
VH: EVQLLESGGGLVQPGGSLRLSCAASGFTFSQYPMWWVRQAPGKGLEWVSYIVPSGGRTYYADSVKGRFTISRDNSKNTLYLQMNSLRAEDTAVYYCAKDRAYGDYVGWNGFDYWGQGTLVTVSS
VL: DIQMTQSPATLSLSPGERATLSCRASQSISSFLAWYQQKPGQAPRLLIYDASYRATGIPARFSGSGSGTDFTLTISSLEPEDYAVYYCQQRGNWPITFGQGTRLEIK
Ki [3]: 76 nM

B3: X0106-B02 (antibody, V domains shown)
VH: EVQLLESGGGLVQPGGSLRLSCAASGFTFSWYDMWWVRQAPGKGLEWVSVIYSSGGPTFYADSVKGRFTISRDNSKNTLYLQMNSLRAEDTAVYYCAKDRAYGDYVGWNGFDYWGQGTLVTVSS
VL: EIVLTQSPATLSLSPGERATLSCRASQSISSFLAWYQQKPGQAPRLLIYDASYRATGIPARFSGSGSGTDFTLTISSLEPEDFAVYYCQQRGNWPITFGQGTRLEIK
Ki [3]: 4.2 nM

B5: X0106-E04 (antibody, V domains shown)
VH: EVQLLESGGGLVQPGGSLRLSCAASGFTFSQYDMWWVRQAPGKGLEWVSVIYPSGTTFYADSVKGRFTISRDNSKNTLYLQMNSLRAEDTAVYYCAKDRAYGDYVGWNGFDYWGQGTLVTVSS
VL: EIVLTQSPATLSLSPGERATLSCRASQSISSFLAWYQQKPGQAPRLLIYDASYRATGIPARFSGSGSGTDFTLTISSLEPEDFAVYYCQQRGNWPITFGQGTRLEIK
Ki [3]: 3.9 nM

B6: X0106-F05 (antibody, V domains shown)
VH: EVQLLESGGGLVQPGGSLRLSCAASGFTFSLYDMWWVRQAPGKGLEWVSVIYSSGGYTGYADSVKGRFTISRDNSKNTLYLQMNSLRAEDTAVYYCAKDRAYGDYVGWNGFDYWGQGTLVTVSS
VL: EIVLTQSPATLSLSPGERATLSCRASQSISSFLAWYQQKPGQAPRLLIYDASYRATGIPARFSGSGSGTDFTLTISSLEPEDFAVYYCQQRGNWPITFGQGTRLEIK
Ki [3]: 3 nM

B10: M0275-E12 (Fab, V domains shown)
VH: EVQLLESGGGLVQPGGSLRLSCAASGFTFSHYDMWWVRQAPGKGLEWVSVIYSSGGFTGYADSVKGRFTISRDNSKNTLYLQMNSLRAEDTAVYYCAKDRAYGDYVGWNGFDYWGQGTLVTVSS
VL: DIQMTQSPATLSLSPGERATLSCRASQSISSFLAWYQQKPGQAPRLLIYDASYRATGIPARFSGSGSGTDFTLTISSLEPEDYAVYYCQQRGNWPITFGQGTRLEIK
Ki [1]: 15 nM
Ki [2]: 15 nM

B12: M0256-D11 (Fab, V domains shown)
VH: EVQLLESGGGLVQPGGSLRLSCAASGFTFSHYDMWWVRQAPGKGLEWVSVIYSSGGPTFYADSVKGRFTISRDNSKNTLYLQMNSLRAEDTAVYYCAKDRAYGDYVGWNGFDYWGQGTLVTVSS
VL: DIQMTQSPATLSLSPGERATLSCRASQSISSFLAWYQQKPGQAPRLLIYDASYRATGIPARFSGSGSGTDFTLTISSLEPEDYAVYYCQQRGNWPITFGQGTRLEIK
Ki [1]: 4.2 nM
Ki [2]: 4.2 nM

B15: M0275-D03 (Fab, V domains shown)
VH: EVQLLESGGGLVQPGGSLRLSCAASGFTFSQYDMWWVRQAPGKGLEWVSVIYPSGTTFYADSVKGRFTISRDNSKNTLYLQMNSLRAEDTAVYYCAKDRAYGDYVGWNGFDYWGQGTLVTVSS
VL: DIQMTQSPATLSLSPGERATLSCRASQSISSFLAWYQQKPGQAPRLLIYDASYRATGIPARFSGSGSGTDFTLTISSLEPEDYAVYYCQQRGNWPITFGQGTRLEIK
Ki [1]: 5.4 nM
Ki [2]: 5.4 nM

B16: M0273-A11 (Fab, V domains shown)
VH: EVQLLESGGGLVQPGGSLRLSCAASGFTFSRYDMWWVRQAPGKGLEWVSVISPSGGATFYADSVKGRFTISRDNSKNTLYLQMNSLRAEDTAVYYCAKDRAYGDYVGWNGFDYWGQGTLVTVSS
VL: DIQMTQSPATLSLSPGERATLSCRASQSISSFLAWYQQKPGQAPRLLIYDASYRATGIPARFSGSGSGTDFTLTISSLEPEDYAVYYCQQRGNWPITFGQGTRLEIK
Ki [1]: 32 nM
Ki [2]: 32 nM

B17: M0273-G07 (Fab, V domains shown)
VH: EVQLLESGGGLVQPGGSLRLSCAASGFTFSHYDMWWVRQAPGKGLEWVSVIYPSGGPTYYADSVKGRFTISRDNSKNTLYLQMNSLRAEDTAVYYCAKDRAYGDYVGWNGFDYWGQGTLVTVSS
VL: DIQMTQSPATLSLSPGERATLSCRASQSISSFLAWYQQKPGQAPRLLIYDASYRATGIPARFSGSGSGTDFTLTISSLEPEDYAVYYCQQRGNWPITFGQGTRLEIK
Ki [1]: 22 nM
Ki [2]: 22 nM

Further lines, results first:

Ki [3]: 3.2 nM
B4: X0106-C03 (antibody, V domains shown)
VH: EVQLLESGGGLVQPGGSLRLSCAASGFTFSVYDMWWVRQAPGKGLEWVSVIYPSGGATYYADSVKGRFTISRDNSKNTLYLQMNSLRAEDTAVYYCAKDRAYGDYVGWNGFDYWGQGTLVTVSS
VL: EIVLTQSPATLSLSPGERATLSCRASQSISSFLAWYQQKPGQAPRLLIYDASYRATGIPARFSGSGSGTDFTLTISSLEPEDFAVYYCQQRGNWPITFGQGTRLEIK

Ki [1]: 2.2 nM
Ki [2]: 2.2 nM
B7: M0307-F04 (Fab, V domains shown)
VH: EVQLLESGGGLVQPGGSLRLSCAASGFTFSLYDMWWVRQAPGKGLEWVSVIYSSGGYTGYADSVKGRFTISRDNSKNTLYLQMNSLRAEDTAVYYCAKDRAYGDYVGWNGFDYWGQGTLVTVSS
VL: DIQMTQSPATLSLSPGERATLSCRASQSISSFLAWYQQKPGQAPRLLIYDASYRATGIPARFSGSGSGTDFTLTISSLEPEDYAVYYCQQRGNWPITFGQGTRLEIK

Ki [1]: 3.7 nM
Ki [2]: 3.7 nM
B8: M0276-F11 (Fab, V domains shown)
VH: EVQLLESGGGLVQPGGSLRLSCAASGFTFSWYDMWWVRQAPGKGLEWVSVIYSSGGPTFYADSVKGRFTISRDNSKNTLYLQMNSLRAEDTAVYYCAKDRAYGDYVGWNGFDYWGQGTLVTVSS
VL: DIQMTQSPATLSLSPGERATLSCRASQSISSFLAWYQQKPGQAPRLLIYDASYRATGIPARFSGSGSGTDFTLTISSLEPEDYAVYYCQQRGNWPITFGQGTRLEIK

Ki [1]: 30 nM
Ki [2]: 30 nM
B9: M0299-A12 (Fab, V domains shown)
VH: EVQLLESGGGLVQPGGSLRLSCAASGFTFSHYPMWWVRQAPGKGLEWVSYISSSGGGTFYADSVKGRFTISRDNSKNTLYLQMNSLRAEDTAVYYCAKDRAYGDYVGWNGFDYWGQGTLVTVSS
VL: DIQMTQSPATLSLSPGERATLSCRASQSISSFLAWYQQKPGQAPRLLIYDASYRATGIPARFSGSGSGTDFTLTISSLEPEDYAVYYCQQRGNWPITFGQGTRLEIK

Ki [1]: 21 nM
Ki [2]: 21 nM
B11: M0301-A09 (Fab, V domains shown)
VH: EVQLLESGGGLVQPGGSLRLSCAASGFTFSYYDMWWVRQAPGKGLEWVSVIYPSGGYTAYADSVKGRFTISRDNSKNTLYLQMNSLRAEDTAVYYCAKDRAYGDYVGWNGFDYWGQGTLVTVSS
VL: DIQMTQSPATLSLSPGERATLSCRASQSISSFLAWYQQKPGQAPRLLIYDASYRATGIPARFSGSGSGTDFTLTISSLEPEDYAVYYCQQRGNWPITFGQGTRLEIK

Ki [1]: 46 nM
Ki [2]: 46 nM
B13: M0272-H08 (Fab, V domains shown)
VH: EVQLLESGGGLVQPGGSLRLSCAASGFTFSAYDMWWVRQAPGKGLEWVSVIYPSGGTTFYADSVKGRFTISRDNSKNTLYLQMNSLRAEDTAVYYCAKDRAYGDYVGWNGFDYWGQGTLVTVSS
VL: DIQMTQSPATLSLSPGERATLSCRASQSISSFLAWYQQKPGQAPRLLIYDASYRATGIPARFSGSGSGTDFTLTISSLEPEDYAVYYCQQRGNWPITFGQGTRLEIK

Ki [1]: 2.7 nM
Ki [2]: 2.7 nM
B14: M0274-G08 (Fab, V domains shown)
VH: EVQLLESGGGLVQPGGSLRLSCAASGFTFSVYDMWWVRQAPGKGLEWVSVIYPSGGATYYADSVKGRFTISRDNSKNTLYLQMNSLRAEDTAVYYCAKDRAYGDYVGWNGFDYWGQGTLVTVSS
VL: DIQMTQSPATLSLSPGERATLSCRASQSISSFLAWYQQKPGQAPRLLIYDASYRATGIPARFSGSGSGTDFTLTISSLEPEDYAVYYCQQRGNWPITFGQGTRLEIK

Ki [1]: 59 nM
Ki [2]: 59 nM
B18: M0273-B10 (Fab, V domains shown)
VH: EVQLLESGGGLVQPGGSLRLSCAASGFTFSKYAMIWVRQAPGKGLEWVSWIPPSGGYTSYADSVKGRFTISRDNSKNTLYLQMNSLRAEDTAVYYCAKDRAYGDYVGWNGFDYWGQGTLVTVSS
VL: DIQMTQSPATLSLSPGERATLSCRASQSISSFLAWYQQKPGQAPRLLIYDASYRATGIPARFSGSGSGTDFTLTISSLEPEDYAVYYCQQRGNWPITFGQGTRLEIK

Ki [1]: 18 nM
Ki [2]: 18 nM
B19: M0273-C10 (Fab, V domains shown)
VH: EVQLLESGGGLVQPGGSLRLSCAASGFTFSFYPMWWVRQAPGKGLEWVSYIYPSGGATFYADSVKGRFTISRDNSKNTLYLQMNSLRAEDTAVYYCAKDRAYGDYVGWNGFDYWGQGTLVTVSS
VL: DIQMTQSPATLSLSPGERATLSCRASQSISSFLAWYQQKPGQAPRLLIYDASYRATGIPARFSGSGSGTDFTLTISSLEPEDYAVYYCQQRGNWPITFGQGTRLEIK
